Patent US20180094059A1 (published 2018)
Substitutions are numbered along the chain they refer to.

B1: scTRAIL3-FAVGGAA (ligand)
chain: LDDYKDDDDKEFGGAAAHITGTRGRSNTLSSPNSKNEKALGRKINSWESSRSGHSFLSNLHLRNGELVIHEKGFYYIYSQTYFRFQEEIKENTKNDKQMVQYIYKYTSYPDPILLMKSARNSCWSKDAEYGLYSIYQGGIFELKENDRIFVSVTNEHLIDMDHEASFFGAFAVGGAAAHITGTRGRSNTLSSPNSKNEKALGRKINSWESSRSGHSFLSNLHLRNGELVIHEKGFYYIYSQTYFRFQEEIKENTKNDKQMVQYIYKYTSYPDPILLMKSARNSCWSKDAEYGLYSIYQGGIFELKENDRIFVSVTNEHLIDMDHEASFFGAFAVGGAAAHITGTRGRSNTLSSPNSKNEKALGRKINSWESSRSGHSFLSNLHLRNGELVIHEKGFYYIYSQTYFRFQEEIKENTKNDKQMVQYIYKYTSYPDPILLMKSARNSCWSKDAEYGLYSIYQGGIFELKENDRIFVSVTNEHLIDMDHEASFFGAFAVG
B2: scTRAIL3-FAVGGIA (protein)
chain: MDWTWRVFCLLAVAPGAHSLDDYKDDDDKEFGGAAAHITGTRGRSNTLSSPNSKNEKALGRKINSWESSRSGHSFLSNLHLRNGELVIHEKGFYYIYSQTYFRFQEEIKENTKNDKQMVQYIYKYTSYPDPILLMKSARNSCWSKDAEYGLYSIYQGGIFELKENDRIFVSVTNEHLIDMDHEASFFGAFLVGGAAAHITGTRGRSNTLSSPNSKNEKALGRKINSWESSRSGHSFLSNLHLRNGELVIHEKGFYYIYSQTYFRFQEEIKENTKNDKQMVQYIYKYTSYPDPILLMKSARNSCWSKDAEYGLYSIYQGGIFELKENDRIFVSVTNEHLIDMDHEASFFGAFLVGGAAAHITGTRGRSNTLSSPNSKNEKALGRKINSWESSRSGHSFLSNLHLRNGELVIHEKGFYYIYSQTYFRFQEEIKENTKNDKQMVQYIYKYTSYPDPILLMKSARNSCWSKDAEYGLYSIYQGGIFELKENDRIFVSVTNEHLIDMDHEASFFGAFLVG
B3: scTRAIL3-FLVSGIA (protein)
chain: B2 chain with A34I, L191A, A195I, L352A, A356I, L513A
B4: scTRAIL3-FIVGGIA (protein)
chain: B2 chain with L191A, L352A, L513A
B5: scTRAIL3-FAVSGAA (protein)
chain: B2 chain with L191A, G193S, L352A, G354S, L513A, G515S
B6: scTRAIL3-FIVSGIA (protein)
chain: B2 chain with A34I, L191I, A195I, L352I, A356I, L513I
B7: Db-Glyco-scTRAIL3-FAVSGAA (other)
chain: LEASDYKDDDDKGAEVQLVESGGGLVQPGGSLRLSCAASGFSLTNYGVHWVRQAPGKGLEWLGVIWSGGNTDYNTPFTSRFTISRDNSKNTLYLQMNSLRAEDTAVYYCARALTYYDYEFAYWGQGTTVTVSSGGGGSDIQLTQSPSFLSASVGDRVTITCRASQSIGTNIHWYQQKPGKAPKLLIKYASESISGVPSRFSGSGSGTEFTLTISSLQPEDFATYYCQQNNNWPTTFGAGTKLEIKRAAAGNGTSNGTSEFGGAAAHITGTRGRSNTLSSPNSKNEKALGRKINSWESSRSGHSFLSNLHLRNGELVIHEKGFYYIYSQTYFRFQEEIKENTKNDKQMVQYIYKYTSYPDPILLMKSARNSCWSKDAEYGLYSIYQGGIFELKENDRIFVSVTNEHLIDMDHEASFFGAFAVSGAAAHITGTRGRSNTLSSPNSKNEKALGRKINSWESSRSGHSFLSNLHLRNGELVIHEKGFYYIYSQTYFRFQEEIKENTKNDKQMVQYIYKYTSYPDPILLMKSARNSCWSKDAEYGLYSIYQGGIFELKENDRIFVSVTNEHLIDMDHEASFFGAFAVSGAAAHITGTRGRSNTLSSPNSKNEKALGRKINSWESSRSGHSFLSNLHLRNGELVIHEKGFYYIYSQTYFRFQEEIKENTKNDKQMVQYIYKYTSYPDPILLMKSARNSCWSKDAEYGLYSIYQGGIFELKENDRIFVSVTNEHLIDMDHEASFFGAFAVS
modifications: two N-glycosylation sites in the peptide AAAGNGTSNGTSEFGG, shown to be glycosylated
B8: Db-Glyco-scTRAIL3-FAVSGIA (other)
chain: B7 chain with A263I, A424I, A585I
modifications: glycosylated connecting peptide
B9: Db-Glyco-scTRAIL-95L8 (other)
chain: TSEETISTVQEKQQNISPLVRERGPQRVAAHITGTRGRSNTLSSPNSKNEKALGRKINSWESSRSGHSFLSNLHLRNGELVIHEKGFYYIYSQTYFRFQEEIKENTKNDKQMVQYIYKYTSYPDPILLMKSARNSCWSKDAEYGLYSIYQGGIFELKENDRIFVSVTNEHLIDMDHEASFFGAFLVGGGGSGGGSTSEETISTVQEKQQNISPLVRERGPQRVAAHITGTRGRSNTLSSPNSKNEKALGRKINSWESSRSGHSFLSNLHLRNGELVIHEKGFYYIYSQTYFRFQEEIKENTKNDKQMVQYIYKYTSYPDPILLMKSARNSCWSKDAEYGLYSIYQGGIFELKENDRIFVSVTNEHLIDMDHEASFFGAFLVGGGGSGGGSTSEETISTVQEKQQNISPLVRERGPQRVAAHITGTRGRSNTLSSPNSKNEKALGRKINSWESSRSGHSFLSNLHLRNGELVIHEKGFYYIYSQTYFRFQEEIKENTKNDKQMVQYIYKYTSYPDPILLMKSARNSCWSKDAEYGLYSIYQGGIFELKENDRIFVSVTNEHLIDMDHEASFFGAFLVG
B10: Db8-Glyco-scTRAIL3-FAVSGAA (other)
chain: LEASDYKDDDDKGAEVQLVESGGGLVQPGGSLRLSCAASGFSLTNYGVHWVRQAPGKGLEWLGVIWSGGNTDYNTPFTSRFTISRDNSKNTLYLQMNSLRAEDTAVYYCARALTYYDYEFAYWGQGTTVTVSSGGGGSGGGDIQLTQSPSFLSASVGDRVTITCRASQSIGTNIHWYQQKPGKAPKLLIKYASESISGVPSRFSGSGSGTEFTLTISSLQPEDFATYYCQQNNNWPTTFGAGTKLEIKRAAAGNGTSNGTSEFGGAAAHITGTRGRSNTLSSPNSKNEKALGRKINSWESSRSGHSFLSNLHLRNGELVIHEKGFYYIYSQTYFRFQEEIKENTKNDKQMVQYIYKYTSYPDPILLMKSARNSCWSKDAEYGLYSIYQGGIFELKENDRIFVSVTNEHLIDMDHEASFFGAFAVSGAAAHITGTRGRSNTLSSPNSKNEKALGRKINSWESSRSGHSFLSNLHLRNGELVIHEKGFYYIYSQTYFRFQEEIKENTKNDKQMVQYIYKYTSYPDPILLMKSARNSCWSKDAEYGLYSIYQGGIFELKENDRIFVSVTNEHLIDMDHEASFFGAFAVSGAAAHITGTRGRSNTLSSPNSKNEKALGRKINSWESSRSGHSFLSNLHLRNGELVIHEKGFYYIYSQTYFRFQEEIKENTKNDKQMVQYIYKYTSYPDPILLMKSARNSCWSKDAEYGLYSIYQGGIFELKENDRIFVSVTNEHLIDMDHEASFFGAFAVS
modifications: glycosylated connecting peptide
B11: Db10-Glyco-scTRAIL3-FAVSGAA (other)
chain: LEASDYKDDDDKGAEVQLVESGGGLVQPGGSLRLSCAASGFSLTNYGVHWVRQAPGKGLEWLGVIWSGGNTDYNTPFTSRFTISRDNSKNTLYLQMNSLRAEDTAVYYCARALTYYDYEFAYWGQGTTVTVSSGGGGSGGGGSDIQLTQSPSFLSASVGDRVTITCRASQSIGTNIHWYQQKPGKAPKLLIKYASESISGVPSRFSGSGSGTEFTLTISSLQPEDFATYYCQQNNNWPTTFGAGTKLEIKRAAAGNGTSNGTSEFGGAAAHITGTRGRSNTLSSPNSKNEKALGRKINSWESSRSGHSFLSNLHLRNGELVIHEKGFYYIYSQTYFRFQEEIKENTKNDKQMVQYIYKYTSYPDPILLMKSARNSCWSKDAEYGLYSIYQGGIFELKENDRIFVSVTNEHLIDMDHEASFFGAFAVSGAAAHITGTRGRSNTLSSPNSKNEKALGRKINSWESSRSGHSFLSNLHLRNGELVIHEKGFYYIYSQTYFRFQEEIKENTKNDKQMVQYIYKYTSYPDPILLMKSARNSCWSKDAEYGLYSIYQGGIFELKENDRIFVSVTNEHLIDMDHEASFFGAFAVSGAAAHITGTRGRSNTLSSPNSKNEKALGRKINSWESSRSGHSFLSNLHLRNGELVIHEKGFYYIYSQTYFRFQEEIKENTKNDKQMVQYIYKYTSYPDPILLMKSARNSCWSKDAEYGLYSIYQGGIFELKENDRIFVSVTNEHLIDMDHEASFFGAFAVS
modifications: glycosylated connecting peptide
B12: scTRAIL3-FLVGGVA (ligand)
chain: B1 chain with A15V, A172L, A176V, A333L, A337V, A494L
B13: scTRAIL3-FLVGGAA (ligand)
chain: B1 chain with A172L, A333L, A494L

What follows are binders tested against TRAIL-R2-Fc (human, UniProt O14763 56-210) (assay: ELISA).
B1 was tested, and the EC50 was 5.25 nM. Binder B2 has an EC50 of 8.82 nM. B3 gave an EC50 of 17.5 nM. Work on B4 yielded an EC50 of 4.82 nM. B5 was tested, and the EC50 was 5.69 nM. B6 showed an EC50 of 6.7 nM.

What follows are binders tested against HT1080 (assay: flow cytometry; HT1080 cells).
B7 gave an EC50 of 2.6 nM. B8 gave an EC50 of 4.3 nM. B9 showed an EC50 of 0.6 nM. In the case of B10, the EC50 is reported as 1.9 nM. Work on B11 yielded an EC50 of 3 nM.

Each binder was assayed against Colo 205 (assay: flow cytometry; Colo205 cells).
With B1 the EC50 was 4.1 nM. B12 showed an EC50 of 12.7 nM. In the case of B13, the EC50 is reported as 4.2 nM.
